Experimental data published in patent US20040018971A1 (published 2004).

Experiments:
HLA-A*0301 [1] = molecular target: T1, HLA-A*0301 (human); experiment: competitive inhibition of 125I-labelled standard peptide binding to purified HLA-A*0301, gel filtration; standard 941.12 [..] (11 nM)
T1 construct: also called HLA-A3

[2] = molecular target: T2, HLA-A*0101 (purified HLA class I molecule) (human); experiment: competition with 125I-labelled standard peptide on purified HLA-A*0101, gel filtration
T2 construct: also called HLA-A1

HLA-A*0301 [3] = molecular target: T3, HLA-A*0301 (human); experiment: inhibition of 125I-labelled probe peptide binding to purified HLA-A*0301, gel filtration; ratio to standard peptide 941.12 [..] (11 nM)
T3 construct: also called HLA-A3

HLA-A*1101 = HLA-A*1101 (human); experiment: competition with 125I-labelled probe peptide for purified HLA-A*1101, gel filtration; ratio to standard peptide 940.06 [..] (6.0 nM)
HLA-A*0201 = molecular target: T4, HLA-A*0201 (human); experiment: inhibition of 125I-labelled probe peptide binding to purified HLA, gel filtration
T4 construct: also called HLA-A2.1

HLA-A*2402 = HLA-A*2402 (human); experiment: inhibition of 125I-labeled probe peptide binding to purified HLA-A*2402, gel filtration

B1: HER2/neu peptide, position 167, 9 amino acids (peptide)
peptide: ILWKDIFHK
notes: Synthetic peptide; also called Her2/neu.167
relative binding ratio (IC50 of standard peptide / IC50 of test peptide) (HLA-A*0301 [1]): 0.28 ratio

ELMTFGAKPY [HER2/neu peptide, position 914, 10 amino acids]
relative binding ratio (IC50 of standard peptide / IC50 of test peptide) [2]: 0.0082 ratio

B2: HER2/neu peptide, position 360, 10 amino acids (peptide)
peptide: NIQEFAGCKK
notes: Synthetic peptide; also called Her2/neu.360 (10-mer)
relative binding ratio (IC50 of standard peptide / IC50 of test peptide) (HLA-A*0301 [3]): 0.0003

B3: HER2/neu peptide, position 478, 10 amino acids (peptide)
peptide: HTVPWDQLFR
notes: Synthetic peptide; also called Her2/neu.478
relative binding ratio (IC50 of standard peptide / IC50 of test peptide) (HLA-A*0301 [1]): 0.0035 ratio

VVQGNLELTY
relative binding ratio (IC50 of standard peptide / IC50 of test peptide) [2]: 0.018 ratio

VVQGNLELTY (also called Her2/neu.55)
relative binding ratio (IC50 of standard peptide / IC50 of test peptide) (HLA-A*1101): 0.011 ratio

DMGDLVDAEEY [HER2/neu peptide, position 1013, 11 amino acids]
relative binding ratio (IC50 of standard peptide / IC50 of test peptide) [2]: 0.0027 ratio

B4: HER2/neu peptide, position 181, 10 amino acids (peptide)
peptide: LTLIDTNRSR
notes: Synthetic peptide; also called Her2/neu.181 (10-mer)
relative binding ratio (IC50 of standard peptide / IC50 of test peptide) (HLA-A*0301 [3]): 0.0002

LALTLIDTNR (Synthetic peptide) [HER2/neu peptide, position 179, 10 amino acids]
relative binding ratio (IC50 of standard peptide / IC50 of test peptide) (HLA-A*0301 [1]): -0.0002 ratio

YLSTDVGSCT (Synthetic peptide) [HER2/neu peptide, position 303, 10 amino acids]
relative binding ratio (HLA-A*0201): 0.0002 ratio (IC50 of standard peptide / IC50 of test peptide)

B5: HER2/neu peptide, position 360, 9 amino acids (peptide)
peptide: NIQEFAGCK
notes: Synthetic peptide; also called Her2/neu.360 (9-mer)
relative binding ratio (IC50 of standard peptide / IC50 of test peptide) (HLA-A*0301 [3]): 0.0002

ILIKRRQQK (T0001 prints T at residue 673 (FGTLIK)) [HER2/neu peptide, position 673, 9 amino acids]
relative binding ratio (IC50 of standard peptide / IC50 of test peptide) (HLA-A*0301 [1]): 0.38 ratio

RLLDIDETEY [HER2/neu peptide, position 868, 10 amino acids]
relative binding ratio (IC50 of standard peptide / IC50 of test peptide) [2]: 1.3 ratio

PLTCSPQPEY [HER2/neu peptide, position 1130, 10 amino acids]
relative binding ratio (IC50 of standard peptide / IC50 of test peptide) [2]: 0.0072 ratio

RVLQGLPREY [HER2/neu peptide, position 545, 10 amino acids]
relative binding ratio (IC50 of standard peptide / IC50 of test peptide) [2]: 0.0015 ratio

B6: HER2/neu peptide, position 915, 9 amino acids (peptide)
peptide: LMTFGAKPY
notes: Synthetic peptide; also called Her2/neu.915 (9-mer)
relative binding ratio (IC50 of standard peptide / IC50 of test peptide) (HLA-A*0301 [3]): 0.0002

RYTHQSDVF (HER2/neu analog peptide) [Her2/neu.898.Y2F9]
IC50 (HLA-A*2402): 60 nM

ETLEEITGYLY (also called Her2/neu.401) [HER2/neu peptide, position 401, 11 amino acids]
relative binding ratio (IC50 of standard peptide / IC50 of test peptide) [2]: 0.44 ratio

B7: HER2/neu peptide, position 1196, 9 amino acids (peptide)
peptide: YLTPQGGAA
notes: Synthetic peptide; also called HER2/neu 1196-1204
relative binding ratio (HLA-A*0201): 0.0001 ratio (IC50 of standard peptide / IC50 of test peptide)

B8: Her2/neu.8 (peptide)
peptide: RWGLLLAL
notes: HER2/neu peptide, 8-mer; also called RWGLLLAL
IC50 (HLA-A*2402): 480 nM

PSGVKPDLSY [HER2/neu peptide, position 601, 10 amino acids]
relative binding ratio (IC50 of standard peptide / IC50 of test peptide) [2]: 0.001 ratio

TYLPTNASL (HER2/neu peptide, 9-mer) [Her2/neu.63]
IC50 (HLA-A*2402): 316 nM

TYLPTNASF (HER2/neu analog peptide) [Her2/neu.63.F9]
IC50 (HLA-A*2402): 44 nM

B9: HER2/neu peptide, position 665, 10 amino acids (peptide)
peptide: VVLGVVFGIL
notes: Synthetic peptide; also called HER2/neu 665-674
relative binding ratio (HLA-A*0201): 0.0027 ratio (IC50 of standard peptide / IC50 of test peptide)

YISAWPDSL (Synthetic peptide) [HER2/neu peptide, position 411, 9 amino acids]
relative binding ratio (HLA-A*0201): 0.0003 ratio (IC50 of standard peptide / IC50 of test peptide)

VTAEDGTQR (also called Her2/neu.322) [HER2/neu peptide, position 322, 9 amino acids]
relative binding ratio (IC50 of standard peptide / IC50 of test peptide) (HLA-A*1101): 0.014 ratio

HSCVDLDDK (Synthetic peptide) [HER2/neu peptide, position 632, 9 amino acids]
relative binding ratio (IC50 of standard peptide / IC50 of test peptide) (HLA-A*0301 [1]): -0.0002 ratio

LLNWCMQIAK (Synthetic peptide) [HER2/neu peptide, position 822, 10 amino acids]
relative binding ratio (IC50 of standard peptide / IC50 of test peptide) (HLA-A*0301 [3]): 0.14

B10: HER2/neu peptide, position 745, 9 amino acids (peptide)
peptide: NVKIPVAIK
notes: Synthetic peptide; also called Her2/neu.745 (9-mer)
relative binding ratio (IC50 of standard peptide / IC50 of test peptide) (HLA-A*0301 [3]): 0.0058

YVMAGVGSPY [HER2/neu peptide, position 772, 10 amino acids]
relative binding ratio (IC50 of standard peptide / IC50 of test peptide) [2]: 1.1 ratio

B11: HER2/neu peptide, position 960, 9 amino acids (peptide)
peptide: MIDSECRPR
notes: Synthetic peptide; also called Her2/neu.960 (9-mer)
relative binding ratio (IC50 of standard peptide / IC50 of test peptide) (HLA-A*0301 [3]): 0.0017

KIRKYTMR (Synthetic peptide) [HER2/neu peptide, position 681, 8 amino acids]
relative binding ratio (IC50 of standard peptide / IC50 of test peptide) (HLA-A*0301 [1]): 0.001 ratio

AYSLTLQGL (HER2/neu peptide) [Her2/neu.440]
IC50 (HLA-A*2402): 92 nM

AYSLTLQGF (HER2/neu analog peptide) [Her2/neu.440.F9]
IC50 (HLA-A*2402): 52 nM

LACHQLCAR (Synthetic peptide) [HER2/neu peptide, position 509, 9 amino acids]
relative binding ratio (IC50 of standard peptide / IC50 of test peptide) (HLA-A*0301 [1]): -0.0002 ratio

KIPVAIKVLR (Synthetic peptide) [HER2/neu peptide, position 747, 10 amino acids]
relative binding ratio (IC50 of standard peptide / IC50 of test peptide) (HLA-A*0301 [1]): 0.0009 ratio

VVGILLVVV (Synthetic peptide) [HER2/neu peptide, position 658, 9 amino acids]
relative binding ratio (HLA-A*0201): 0.0005 ratio (IC50 of standard peptide / IC50 of test peptide)

B12: HER2/neu peptide, position 42, 9 amino acids (peptide)
peptide: HLDMLRHLY
notes: Synthetic peptide; also called Her2/neu.42
relative binding ratio (IC50 of standard peptide / IC50 of test peptide) (HLA-A*0301 [1]): 0.037 ratio

B13: HER2/neu peptide, position 154, 10 amino acids (peptide)
peptide: LIQRNPQLCY
notes: Synthetic peptide; also called Her2/neu.154 (10-mer)
relative binding ratio (IC50 of standard peptide / IC50 of test peptide) (HLA-A*0301 [3]): 0.0012

LYISAWPDSL (HER2/neu peptide) [Her2/neu.410]
IC50 (HLA-A*2402): 143 nM

LYISAWPDSF (HER2/neu analog peptide) [Her2/neu.410.F10]
IC50 (HLA-A*2402): 10 nM

VVGILLVVVL (Synthetic peptide) [HER2/neu peptide, position 658, 10 amino acids]
relative binding ratio (HLA-A*0201): 0.0009 ratio (IC50 of standard peptide / IC50 of test peptide)

LCYQDTILWK (Synthetic peptide) [HER2/neu peptide, position 161, 10 amino acids]
relative binding ratio (IC50 of standard peptide / IC50 of test peptide) (HLA-A*0301 [1]): 0.0081 ratio

CSKPCARVCY [HER2/neu peptide, position 334, 10 amino acids]
relative binding ratio (IC50 of standard peptide / IC50 of test peptide) [2]: 0.0016 ratio

VTGASPGGLR (also called Her2/neu.129) [HER2/neu peptide, position 129, 10 amino acids]
relative binding ratio (IC50 of standard peptide / IC50 of test peptide) (HLA-A*1101): 0.0005 ratio

ETHLDMLRHLY (also called Her2/neu.40) [HER2/neu peptide, position 40, 11 amino acids]
relative binding ratio (IC50 of standard peptide / IC50 of test peptide) [2]: 0.28 ratio

VVVLGVVFGI (Synthetic peptide) [HER2/neu peptide, position 664, 10 amino acids]
relative binding ratio (HLA-A*0201): 0.0032 ratio (IC50 of standard peptide / IC50 of test peptide)

ILKETELRK (Synthetic peptide) [HER2/neu peptide, position 714, 9 amino acids]
relative binding ratio (IC50 of standard peptide / IC50 of test peptide) (HLA-A*0301 [1]): 0.019 ratio

B14: Herw/neu414.Y2F9 (peptide)
peptide: AYPDSLPDF
notes: HER2/neu analog peptide; label printed with a misprint (Herw/neu414)
IC50 (HLA-A*2402): 24 nM

MALESILRRR (Synthetic peptide) [HER2/neu peptide, position 889, 10 amino acids]
relative binding ratio (IC50 of standard peptide / IC50 of test peptide) (HLA-A*0301 [3]): 0.0011

SYGVTVWEL (HER2/neu peptide) [Her2/neu.907]
IC50 (HLA-A*2402): 100 nM

KVLRENTSPK (Synthetic peptide) [HER2/neu peptide, position 753, 10 amino acids]
relative binding ratio (IC50 of standard peptide / IC50 of test peptide) (HLA-A*0301 [1]): 0.38 ratio

SYMPIWKF (HER2/neu peptide) [Her2/neu.609]
IC50 (HLA-A*2402): 38 nM

B15: HER2/neu peptide, position 725, 10 amino acids (peptide)
peptide: VLGSGAFGTV
notes: Synthetic peptide; also called HER2/neu 725-734
relative binding ratio (HLA-A*0201): 0.0007 ratio (IC50 of standard peptide / IC50 of test peptide)

PTHDPSPLQRY (H is used here) [HER2/neu peptide, position 1102, 11 amino acids]
relative binding ratio (IC50 of standard peptide / IC50 of test peptide) [2]: 0.016 ratio

B16: HER2/neu peptide, position 1014, 10 amino acids (peptide)
peptide: MGDLVDAEEY
notes: Synthetic peptide; also called Her2/neu.1014 (10-mer)
relative binding ratio (IC50 of standard peptide / IC50 of test peptide) (HLA-A*0301 [3]): 0.0002

B17: HER2/neu peptide, position 402, 9 amino acids (peptide)
peptide: TLEEITGYL
notes: Synthetic peptide; also called HER2/neu 402-410
relative binding ratio (HLA-A*0201): 0.0018 ratio (IC50 of standard peptide / IC50 of test peptide)

B18: HER2/neu peptide, position 452, 10 amino acids (peptide)
peptide: WLGLRSLREL
notes: Synthetic peptide; also called HER2/neu 452-461
relative binding ratio (HLA-A*0201): 0.0001 ratio (IC50 of standard peptide / IC50 of test peptide)

B19: HER2/neu peptide, position 841, 9 amino acids (peptide)
peptide: LVHRDLAAR
notes: Synthetic peptide; also called Her2/neu.841 (9-mer)
relative binding ratio (IC50 of standard peptide / IC50 of test peptide) (HLA-A*0301 [3]): 0.004

B20: HER2/neu peptide, position 1172, 10 amino acids (peptide)
peptide: TLSPGKNGVV
notes: Synthetic peptide; also called HER2/neu 1172-1181
relative binding ratio (HLA-A*0201): 0.0001 ratio (IC50 of standard peptide / IC50 of test peptide)

VSEFSRMAR (also called Her2/neu.973) [HER2/neu peptide, position 973, 9 amino acids]
relative binding ratio (IC50 of standard peptide / IC50 of test peptide) (HLA-A*1101): 0.0021 ratio

B21: HER2/neu peptide, position 666, 9 amino acids (peptide)
peptide: VLGVVFGIL
notes: Synthetic peptide; also called HER2/neu 666-674
relative binding ratio (HLA-A*0201): 0.0005 ratio (IC50 of standard peptide / IC50 of test peptide)

VLQGLPREYV (Synthetic peptide) [HER2/neu peptide, position 546, 10 amino acids]
relative binding ratio (HLA-A*0201): 0.0009 ratio (IC50 of standard peptide / IC50 of test peptide)

CYGLGMEHF (HER2/neu analog peptide) [Her2/neu.342.F9]
IC50 (HLA-A*2402): 164 nM
